The target in assay [1] is human CSF-1R, full length, on cells (human) (UniProt P07333). Description: displacement of ^125I-H27K15 on EL4-CSF-1R cells.
Assay [2] shares this target. Put plainly: displacement of 1.5 nM ^125I-H27K15 (competitor) on EL4-CSF-1R cells, Cheng-Prusoff.
For assay [3] the target is unchanged. Description: displacement of 1.5 nM ^125I-H27K15 (competitor) on EL4-CSF-1R cells.
Assay [4] addresses CSF-1R20-512-Fc (R&D Systems cat. 329-MR) (human) (UniProt P07333). Put plainly: competition ELISA, pre-incubation: coated Fc-D1-D5 human CSF-1R, mAb 1 hour, then biotinylated CSF-1(1-444) 1 hour; streptavidin-HRP.
Assay [5] shares this target. Put plainly: competition ELISA, post-incubation: coated Fc-D1-D5 human CSF-1R, biotinylated CSF-1(1-444) 1 hour, then mAb 1 hour; streptavidin-HRP.
Assay [6] shares this target. Description: competition ELISA, co-incubation: coated Fc-D1-D5 human CSF-1R, mAb and biotinylated CSF-1(1-444) together 1 hour; streptavidin-HRP.
Assay [7] has the same target. Description: competition ELISA with biotinylated CSF-1(1-444) on coated CSF-1R-Fc, saturation doses, pre-, co- or post-incubation.

For the substance “mAb 3291 (murine IgG1, clone 61701, R&D Systems MAB3291) (antibody)”, the results for the Ki in assay [1] and in assay [2] were greater than 1 nM and 1.28 nM, respectively. Also, the IC50 in assay [3] stood at 2.18 nM. The IC50 (read off the curve) in assay [4] was 0.5 µg/mL; in assay [5] it was 0.6 µg/mL; in assay [6] it was 1 µg/mL. The decrease of the CSF-1 binding to CSF-1R (%) in assay [7] was in the range of 30 to 40%.
For the substance “mAb JF14 (murine IgG1, Santa Cruz sc-80174) (antibody)”, the Ki was greater than 1 nM in assay [1] and 1.78 nM in assay [2]. In addition, in assay [3], the IC50 is 3.02 nM.

The values are drawn from US20170002081A1.
